Test results: US7803758B2, “I kappa B kinase complex as a target for the treatment of Huntington's disease” (California Institute of Technology, priority 2004, dated 2010)

Columns and labels:
[1] = test system: NF-κB-dependent gene expression; experiment: NF-κB luciferase gene reporter assay in inducible PC12 cells expressing mutant HDx1; assay type: cell-based
Description: Gene Reporter and transfections. The pNF-κB-luciferase with five enhanced elements and the control plasmid without NF-κB binding sites, pCIS-CK luciferase, were used for gene reporter assays (Strategene, La Jolla, Calif.). To normalize for transfection efficiency between samples, a β-galactosidase (β-gal) construct expressed from the EF-1α promoter (Invitrogen, Carlsbad, Calif.), was included in all gene reporter assays. PC12 cells were transfected with control or NF-κB-luciferase plasmids using lipofectamine-plus. On the following day, cells were left untreated or stimulated for 8 hr with 1 μg/ml ecdysone to induce expression of HDx1. […] Luciferase activity was measured by addition of the substrate (Promega, Madison, Wis.) to equal amounts of protein from each sample. […] All gene reporter assays were corrected for transfection efficiency by normalizing the units if β-gal in the extracts, using the β-gal assay (Invitrogen). β-gal values from the samples were divided by the β-gal value from control, 25polyQ, noninduced PC12 cells (no expression of HDx1) and multiplied by each corresponding luciferase reading. […]
Gene Reporter and transfections. […] Protein concentration was determined by the BCA method (Pierce, Rockford, Ill.). […] Bound p65 was detected with a goat anti-rabbit antibody conjugated to horseradish peroxidase. […]

[2] = test system: PC12 cells expressing mutant HDx1; experiment: Mutant HDx1 toxicity in PC12 cells treated with IKK inhibitor; assay type: cell-based; conditions: Example 5
Description: To examine the effects of a small molecule IKK inhibitor on mutant Htt toxicity, PC12 cells expressing mutant HDx1 are treated with herbimycin or another known IKK inhibitor plus β-gal and NF-κB reporter in six-well plates, essentially as described above in Example 4.

[3] = molecular target: T1, IKKβ subunit (Homo sapiens, UniProt O14920); conditions: Ogino et al., Mol. Pharmacol. 2004; cited from earlier work
T1 sequence (O14920 1-756): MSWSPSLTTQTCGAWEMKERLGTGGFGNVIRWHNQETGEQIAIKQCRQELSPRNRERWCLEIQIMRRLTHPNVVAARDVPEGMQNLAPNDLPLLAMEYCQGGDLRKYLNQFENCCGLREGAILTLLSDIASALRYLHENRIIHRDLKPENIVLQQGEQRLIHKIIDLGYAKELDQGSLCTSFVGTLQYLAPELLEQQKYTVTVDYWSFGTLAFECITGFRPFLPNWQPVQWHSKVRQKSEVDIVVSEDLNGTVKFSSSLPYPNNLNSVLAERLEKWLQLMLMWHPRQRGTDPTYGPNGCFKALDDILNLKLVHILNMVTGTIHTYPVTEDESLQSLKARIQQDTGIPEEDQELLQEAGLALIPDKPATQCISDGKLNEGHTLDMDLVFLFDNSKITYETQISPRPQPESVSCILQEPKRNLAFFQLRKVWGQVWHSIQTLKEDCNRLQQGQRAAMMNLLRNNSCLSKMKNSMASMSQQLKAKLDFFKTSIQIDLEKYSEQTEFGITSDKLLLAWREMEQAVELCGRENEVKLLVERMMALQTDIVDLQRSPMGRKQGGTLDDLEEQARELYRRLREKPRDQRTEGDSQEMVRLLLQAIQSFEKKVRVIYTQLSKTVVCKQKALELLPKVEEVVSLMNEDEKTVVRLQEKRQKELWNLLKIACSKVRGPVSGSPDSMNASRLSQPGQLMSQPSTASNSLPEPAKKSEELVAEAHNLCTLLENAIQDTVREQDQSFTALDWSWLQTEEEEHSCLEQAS

[4] = test system: striatal MSNs; experiment: Brain slice neurodegeneration assay (biolistic transfection of MSNs with HDx1); assay type: cell-based; conditions: P7 rat brain slices; for effect on MSNs expressing WT HDx1: coexpression with WT HDx1; for neurodegeneration / toxicity of mutant HDx1 in MSNs: coexpression with mutant HDx1, 7 d
Description: Brain slice preparation. All animal experiments were performed in accordance with the Institutional Animal Care and Use Committee and Duke University Medical Center Animal Guidelines. Postnatal day 7 (P7) CD Sprague Dawley rats (Charles River Laboratory, Raleigh, N.C.) were decapitated, and the brains were surgically removed and placed in ice-cold Neurobasal medium (Invitrogen). The tissue was fixed to a chilled, stainless steel Vibratome stage using cyanoacrylate glue (Krazy-Glue) and covered with Neurobasal medium. Coronal brain slices (250 μm thick) were cut by Vibratome (VT1000S; Leica, Nusslock Germany) as described previously (Edgerton and Reinhart, 2003). Brain slices were kept at 37° C. in 5.0% CO2 for 1 hr.
Bolistic transfection. Gold particles (1.6 μm gold microcarriers; BioRad, Hercules, Calif.) were used as DNA carriers for transfection as described previously (Lo et al., 1994). Briefly, gold particles were sonicated in 0.05 M spermidine in the presence of plasmid DNA. The gold-DNA mixture was washed three times in 100% ethanol before being loaded into Helios plastic cartridges (Bio-Rad) according to manufacturer's instructions. Slices were transfected using a Bio-Rad Helios gun with a cyan fluorescent protein (CFP)-tagged Htt fragment, together with yellow fluorescent protein (YFP) as a morphometric marker. In a number of experiments, one of the IKKγ constructs was also cotransfected with the Htt-construct and YFP. CFP-tagged Htt fragments were exon-1-N-terminal fragments containing either a short-Q (Q23) or a long-Q (Q148) polyQ domain.
Brain slice neurodegeneration assay. For each condition, transfections were performed on […] brain slices per experiment. Protein expression and neurodegeneration (loss of processes, shriveling of the soma) were assay 2-7 d after transfection using a Leica fluorescence microscope with appropriate filters for YFP and CFP. The total area of the striatum was identified, and transfected MSNs were identified by their morphology. CFP fluorescence was used to determine expression of Htt fragments and their aggregation into macro-inclusions. Each experiment involved three to twelve transfected brain slices per condition, and the data are means from six independent experiments for each condition.

[5] = test system: HEK-293 cells; experiment: Mutant HDx1 toxicity in transfected HEK-293 cells (count of condensed GFP-positive bodies); assay type: cell-based, Human; conditions: 48 hr after transfection
Description: (§1) Transfection of HEK-293 cells with mutant HDx1-EGFP alone (Kasantsev et al., 1999) or with one of the following constructs, full-length (F), DN, and deleted C terminus (DC) of IKKγ (provided by Dr. E. Zandi, University of Southern California) Rothwarf et al., 1998) or ΔF-βTrCP, was done using lipofectamine-plus reagents (Invitrogen). For histochemistry, cultured cells were fixed in 4% paraformaldehyde for 30 min, permeabilized with 70% methanol for 1 hr., and washed with PBS. Cells were stained with anti-HA for IKKγ or anti-myc for ΔF-βTrCP (Cell Signaling, Beverly, Mass.) followed by a goat anti-mouse antibody conjugated by Alexa 594 (Molecular Probes, Eugene, Oreg.). Toto-3, a dimeric cyanine, was used to stain nuclei (Molecular Probes). […] Mutant HDx1 toxicity was assessed by counting the number of condensed GFP-positive bodies, which are remnants of […] deoxynucleotidyl transferase-mediated biotinylated UTP nick endlabeling (TUNEL)-positive (TUNEL^+) cells (Khoshnan et al., 2002), using a florescence microscope. […] Apoptotic cells were labeled with terminal deoxynucleotidyl transferase using digoxigenin-labeled nucleotides and detected by anti-digoxigenin antibody and rhodamine-conjugated secondary according to the instructions provided by the manufacturer (Chemicon, Temecula, Calif.).

[6] = test system: mutant HDx1; experiment: Confocal examination of mutant HDx1 aggregation in HEK-293 cells; assay type: cell-based, Human; conditions: early time point before widespread toxicity
Description: as §1

[7] = test system: HEK-293 cells; experiment: TUNEL staining of HEK-293 cells transfected with mutant HDx1; assay type: cell-based, Human; conditions: HEK-293 cells cotransfected with mutant HDx1
Description: as §1

[8] = molecular target: T2, GST-HDx1 (Homo sapiens, UniProt P42858, INS38QQQQQQQQQQQQQQQQQQQQQQQQQQQQQQ); experiment: GST pull-down binding of in vitro-translated IKKγ constructs to GST-HDx1; conditions: [35S] methionine-labeled construct, GST-HDx1 with expanded polyQ
T2 construct: GST-HDx1 with 20 or 51 polyQs, with and without polyproline domains, was obtained from Dr. E. Wanker; made in house; host or cells: Escherichia coli
Description: Protein-protein interaction. In vitro binding of IKKγ to mutant HDx1 was performed using glutathione S-transferase (GST)-pull down assays. GST-HDx1 with 20 or 51 polyQs, with and without polyproline domains, was obtained from Dr. E. Wanker (Max Plank Institute, Berlin, Germany). These constructs were expressed in Escherichia coli and purified with glutathione beads (Amersham Biosciences, Piscataway, N.J.) according to manufacturer's instructions. IKKγ constructs were transcribed and translated in rabbit reticulocytes in the presence of [^35S] methionine (Promega). Briefly, 5 μg of GST-HDx1 bound to beads was incubated with 10 μl of each labeled in vitro-translated IKKγ produce in 500 μl of Tris-based buffer containing 10% glycerol and 6 mM DTT and rocked at room temperature for 2 hr. Beads were washed five times in the same buffer. Bound IKKγ was examined by SDS-PAGE, followed by autoradiography. Recombinant anti-HDx1 intrabodies (Khoshnan et al., 2002) were expressed and examined similarly from binding to GST-HDx1. For competition assays, 10-fold excess in vitro-translated intrabodies were added to GST-HDx1 plus deleted C terminus IKKγ and processed as above.

T2 sequence (P42858 with tags, fused parts or gaps with the stated changes): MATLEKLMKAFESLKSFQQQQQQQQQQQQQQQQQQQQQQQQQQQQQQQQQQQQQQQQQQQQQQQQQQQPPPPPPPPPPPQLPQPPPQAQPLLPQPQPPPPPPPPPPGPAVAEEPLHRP

CO[C@H]1[C@@H](OC)C[C@H](C)[C@@H](OC)C2=CC(=O)C=C(NC(=O)/C(C)=C/C=C\[C@H](OC)[C@@H](OC(N)=O)/C(C)=C/[C@@H]1C)C2=O [Herbimycin, Herbimycin A]
NF-κB expression ([1]; PC12 cells expressing mutant HDx1, Example 5): reduce NF-κB expression
toxicity of mutant HDx1 in cultured cells [2]: blocks the toxicity
NF-κB activation [3]: abrogates NF-κB activation

IKKγ: full-length regulatory subunit of the IKK complex, expressed from a construct
effect on MSNs expressing WT HDx1 [4]: no obvious effect
neurodegeneration / toxicity of mutant HDx1 in MSNs [4]: no significant effect on neurodegeneration
toxicity of mutant HDx1 (condensed GFP+ bodies) [5]: little effect on toxicity
aggregation of mutant HDx1 [6]: promotes aggregation of mutant HDx1

WT-βTrCP: wild-type E3-ubiquitin ligase βTrCP
neurodegeneration / toxicity of mutant HDx1 in MSNs [4]: does not influence the toxicity of mutant HDx1 in MSNs

B1: DN-IKKγ: IKKγ with the first 134 amino acids removed; N-terminally truncated form that interferes with IKK activity (protein, UniProt Q9Y6K9 135-419, looked up, fragment)
chain: MAEDKASVKAQVTSLLGELQESQSRLEAATKECQALEGRARAASEQARQLESEREALQQQHSVQVDQLRMQGQSVEAALRMERQAASEEKRKLAQLQVAYHQLFQEYDNHIKSSVVGSERKRGMQLEDLKQQLQQAEEALVAKQEVIDKLKEEAEQHKIVMETVPVLKAQADIYKADFQAERQAREKLAEKKELLQEQLEQLQREYSKLKASCQESARIEDMRKRHVEVSQAPLPPAPAYLSSPLALPSQRRSPPEEPPDFCCPKCQYQAPDMDTLQIHVMECIE
effect on MSNs expressing WT HDx1 [4]: no obvious effect
neurodegeneration / toxicity of mutant HDx1 in MSNs [4]: significantly neuroprotective
mutant HDx1-induced NF-κB-dependent gene expression ([1]; PC12 cells, ecdysone-induced HDx1, with or without NGF): blocks basal and NGF-induced NF-κB-dependent gene expression
toxicity of mutant HDx1 (condensed GFP+ bodies) [5]: strongly reduces the toxicity of mutant HDx1
number of TUNEL+ cells [7]: significantly reduced
aggregation of mutant HDx1 [6]: no apparent effect on HDx1 aggregation
binding of IKKγ construct to HDx1 [8]: diminishes binding to HDx1
